The text below walks through data of patent US12679878B2, “CRF2 receptor agonists and their use in therapy” (SANOFI, priority 2020, dated 2026).

The target in this assay is human corticotropin-releasing factor 2α (CRF2 α receptor) (human), Q13324. Put plainly: cell-based or functional assay.

Starred links: 1 amine or outer side, 2 acyl side, 3 side chain; linkers in the order of their positions; H or OH if unused. Non-standard residues stand in square brackets, D forms with d. Groups on a side chain read outwards from the residue. No end group written: not given here. *: point of attachment. C18 diacid = O=C(O)CCCCCCCCCCCCCCCCC(=O)*; γGlu = O=C(O)[C@H](CCC(=O)[*:2])N[*:1]; Palmitoyl = CCCCCCCCCCCCCCCC(=O)*; AEEA = NCCOCCOCC(=O)O

Chain of human corticotropin-releasing factor 2α (CRF2 α receptor) (human), Q13324 (Q13324 20-411): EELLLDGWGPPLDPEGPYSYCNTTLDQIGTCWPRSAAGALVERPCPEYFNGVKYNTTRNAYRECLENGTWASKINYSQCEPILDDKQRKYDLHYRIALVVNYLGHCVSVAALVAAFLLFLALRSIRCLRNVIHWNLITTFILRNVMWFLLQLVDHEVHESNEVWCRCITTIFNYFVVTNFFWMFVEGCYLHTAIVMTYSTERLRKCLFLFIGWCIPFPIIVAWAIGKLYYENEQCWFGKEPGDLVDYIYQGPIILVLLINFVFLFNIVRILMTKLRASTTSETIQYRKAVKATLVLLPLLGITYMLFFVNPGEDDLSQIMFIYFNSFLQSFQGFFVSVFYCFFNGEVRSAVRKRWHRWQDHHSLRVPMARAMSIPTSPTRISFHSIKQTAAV

B1: SEQ ID NO: 96 (peptide)
peptide: IVLSLDVPIKLK([AEEA-AEEA-γGlu-C18 diacid])QILLKQERQKKEREQAETNKQILAQV-NH2
modifications: N-terminus assumed
SMILES: CC[C@H](C)[C@H](N)C(=O)N[C@H](C(=O)N[C@@H](CC(C)C)C(=O)N[C@@H](CO)C(=O)N[C@@H](CC(C)C)C(=O)N[C@@H](CC(=O)O)C(=O)N[C@H](C(=O)N1CCC[C@H]1C(=O)N[C@H](C(=O)N[C@@H](CCCCN)C(=O)N[C@@H](CC(C)C)C(=O)N[C@@H](CCCCNC(=O)COCCOCCNC(=O)COCCOCCNC(=O)CC[C@H](NC(=O)CCCCCCCCCCCCCCCCC(=O)O)C(=O)O)C(=O)N[C@@H](CCC(N)=O)C(=O)N[C@H](C(=O)N[C@@H](CC(C)C)C(=O)N[C@@H](CC(C)C)C(=O)N[C@@H](CCCCN)C(=O)N[C@@H](CCC(N)=O)C(=O)N[C@@H](CCC(=O)O)C(=O)N[C@@H](CCCNC(=N)N)C(=O)N[C@@H](CCC(N)=O)C(=O)N[C@@H](CCCCN)C(=O)N[C@@H](CCCCN)C(=O)N[C@@H](CCC(=O)O)C(=O)N[C@@H](CCCNC(=N)N)C(=O)N[C@@H](CCC(=O)O)C(=O)N[C@@H](CCC(N)=O)C(=O)N[C@@H](C)C(=O)N[C@@H](CCC(=O)O)C(=O)N[C@H](C(=O)N[C@@H](CC(N)=O)C(=O)N[C@@H](CCCCN)C(=O)N[C@@H](CCC(N)=O)C(=O)N[C@H](C(=O)N[C@@H](CC(C)C)C(=O)N[C@@H](C)C(=O)N[C@@H](CCC(N)=O)C(=O)N[C@H](C(N)=O)C(C)C)[C@@H](C)CC)[C@@H](C)O)[C@@H](C)CC)[C@@H](C)CC)C(C)C)C(C)C
Regarding B1, the EC50 [nM], 0% HSA came to 0.38 nM.

B2: SEQ ID NO: 97 (peptide)
peptide: IVLSLDVPIKLK([AEEA-AEEA-γGlu-C18 diacid])QKLLKQERQKKQREQAETNKQILAQV-NH2
modifications: N-terminus assumed
SMILES: CC[C@H](C)[C@H](N)C(=O)N[C@H](C(=O)N[C@@H](CC(C)C)C(=O)N[C@@H](CO)C(=O)N[C@@H](CC(C)C)C(=O)N[C@@H](CC(=O)O)C(=O)N[C@H](C(=O)N1CCC[C@H]1C(=O)N[C@H](C(=O)N[C@@H](CCCCN)C(=O)N[C@@H](CC(C)C)C(=O)N[C@@H](CCCCNC(=O)COCCOCCNC(=O)COCCOCCNC(=O)CC[C@H](NC(=O)CCCCCCCCCCCCCCCCC(=O)O)C(=O)O)C(=O)N[C@@H](CCC(N)=O)C(=O)N[C@@H](CCCCN)C(=O)N[C@@H](CC(C)C)C(=O)N[C@@H](CC(C)C)C(=O)N[C@@H](CCCCN)C(=O)N[C@@H](CCC(N)=O)C(=O)N[C@@H](CCC(=O)O)C(=O)N[C@@H](CCCNC(=N)N)C(=O)N[C@@H](CCC(N)=O)C(=O)N[C@@H](CCCCN)C(=O)N[C@@H](CCCCN)C(=O)N[C@@H](CCC(N)=O)C(=O)N[C@@H](CCCNC(=N)N)C(=O)N[C@@H](CCC(=O)O)C(=O)N[C@@H](CCC(N)=O)C(=O)N[C@@H](C)C(=O)N[C@@H](CCC(=O)O)C(=O)N[C@H](C(=O)N[C@@H](CC(N)=O)C(=O)N[C@@H](CCCCN)C(=O)N[C@@H](CCC(N)=O)C(=O)N[C@H](C(=O)N[C@@H](CC(C)C)C(=O)N[C@@H](C)C(=O)N[C@@H](CCC(N)=O)C(=O)N[C@H](C(N)=O)C(C)C)[C@@H](C)CC)[C@@H](C)O)[C@@H](C)CC)C(C)C)C(C)C
B2: the EC50 [nM], 0% HSA turned out to be 1.66 nM.

Consider IVLSLD[dV]PTKLK([γGlu-Palmitoyl])QKLLKQERQRKEREQAEKNARILARV-NH2 [SEQ ID NO: 7], for which the EC50 [nM], 0% HSA came to 0.02 nM and the EC50 [nM], 0.1% HSA amounted to 0.03 nM.
